Measured values as given in US20210340273A1 (INHLBRX, published 2021).
Numbering of substitutions follows the chain as printed.

T1: human 5T4 (trophoblast glycoprotein), endogenous on the cell surface (human, UniProt Q13641 32-420)
T1 construct: also called TPBG; 5T4 oncofetal antigen
T1 sequence: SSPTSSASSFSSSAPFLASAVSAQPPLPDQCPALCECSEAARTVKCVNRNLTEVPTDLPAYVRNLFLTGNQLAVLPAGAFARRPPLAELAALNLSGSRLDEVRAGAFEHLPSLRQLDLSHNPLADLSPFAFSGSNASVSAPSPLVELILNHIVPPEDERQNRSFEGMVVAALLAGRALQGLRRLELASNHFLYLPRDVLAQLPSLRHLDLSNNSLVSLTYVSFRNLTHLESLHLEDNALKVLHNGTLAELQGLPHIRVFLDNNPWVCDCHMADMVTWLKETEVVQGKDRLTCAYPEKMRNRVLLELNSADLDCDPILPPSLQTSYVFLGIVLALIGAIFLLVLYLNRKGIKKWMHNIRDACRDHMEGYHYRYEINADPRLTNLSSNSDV

B1: hz14B5v4 sdAb-Fc (Fc fusion)
chain: EVQLVESGGGEVQPGGSLRLSCAASERPFGTYAMGWFRQAPGKERDLVAAVSRNGGASQYAESVKGRFTISRDNAKNTVYLQMSSLRAEDTAVYYCAARSAAYSRSSEVYTGKDEYYYWGQGTLVTVKP
notes: Humanized variant of 14B5, linked to a human Fc; not shown: human Fc
B2: hz14B5v9 sdAb-Fc (Fc fusion)
chain: B1 chain with A61G, E62D, V79M
notes: as for B1
B3: hz14B5v8 sdAb-Fc (Fc fusion)
chain: B1 chain with N54G, V79M
notes: as for B1
B4: hz14B5v7 sdAb-Fc (Fc fusion)
chain: B1 chain with N54Q, V79M
notes: as for B1
B5: hz14B5v10 sdAb-Fc (Fc fusion)
chain: B1 chain with A61G, V79M
notes: Humanized variant of 14B5, linked to a human Fc; also called hz14B510; not shown: human Fc
B6: hz14B5v3 sdAb-Fc (Fc fusion)
chain: B1 chain with V79M
notes: as for B1
B7: hz14B5v1 sdAb-Fc (Fc fusion)
chain: B1 chain with E44G, A49S, V79L
notes: as for B1
B8: hz14B5v6 sdAb-Fc (Fc fusion)
chain: B1 chain with G55T, V79M
notes: as for B1
B9: hz14B5v5 sdAb-Fc (Fc fusion)
chain: B1 chain with G55A, V79M
notes: as for B1
B10: hz16G10v1 sdAb-Fc (Fc fusion)
chain: EVQLVESGGGEVQPGGSLRLSCAASGRPFSSSAMGWFRQAPGKGRETVSAVSRNGGSSYYAESVKGRFTISRDNAKNTLYLQMSSLRAEDTAVYYCAARSAAYSRSSETYTEKHDYTYWGQGTLVTVKP
notes: Humanized variant of 16G10, linked to a human Fc; not shown: human Fc
B11: hz16G10v4 sdAb-Fc (Fc fusion)
chain: B10 chain with G44E, S49A, N54Q, L79V
notes: as for B10
B12: hz16G10v3 sdAb-Fc (Fc fusion)
chain: B10 chain with G44E, S49A, L79V
notes: as for B10
B13: hz16G10v2 sdAb-Fc (Fc fusion)
chain: B10 chain with G44E, S49A
notes: as for B10
B14: hz16G10v5 sdAb-Fc (Fc fusion)
chain: B10 chain with G44E, S49A, N54G, L79V
notes: as for B10
B15: hz16G10v6 sdAb-Fc (Fc fusion)
chain: B10 chain with G44E, S49A, G55A, L79V
notes: as for B10
B16: hz16G10v8 sdAb-Fc (Fc fusion)
chain: B10 chain with G44E, S49A, E62D, S63F, L79V
notes: as for B10
B17: hz12E9v4 sdAb-Fc (Fc fusion)
chain: EVQLVESGGGEVQPGGSLRLSCAASRRPFSSKTMAWFRQAPGKEREFVAAVRWIGGATRYTESVKGRFTISRDNAKNTVYLQMSSLRAEDTAVYYCAAGQAWGTKFTDYSDWGQGTLVTVKP
notes: Humanized variant of 12E9, linked to a human Fc; not shown: human Fc
B18: hz12E9v3 sdAb-Fc (Fc fusion)
chain: B17 chain with T61A
notes: as for B17
B19: hz12E9v1 sdAb-Fc (Fc fusion)
chain: B17 chain with E44G, T61A, V79L
notes: as for B17
B20: hz12E9v6 sdAb-Fc (Fc fusion)
chain: B17 chain with P14A, A40T, T61A
notes: as for B17
B21: hz12E9v2 sdAb-Fc (Fc fusion)
chain: B17 chain with T61A, V79L
notes: as for B17

Biological target: T1, human 5T4 (trophoblast glycoprotein), …
Assay: flow cytometry (FL4H median), sdAb-Fc titrated on 5T4-positive T47D cells
Description: Specificity and relative affinity were assessed for purified sdAb-Fcs on 5T4-expressing cells. Binding of 5T4-sdAb-Fc fusion proteins was assessed by flow cytometry using 5T4-expressing cells. A titration series of the fusion protein was incubated with the 5T4-expressing cell lines (approximately 2.5×10⁴ to 5×10⁴ cells/well) for 30 minutes at 4 degrees Celsius in FACS Buffer (PBS 1% BSA, 0.1% NaN₃ pH 7.4) in 96 well plates. Following three wash steps in FACS buffer, an APC-conjugated anti-human Fcγ specific secondary antibody (Jackson ImmunoResearch) was added and incubated for 30 minutes at 4 degrees Celsius. Following three additional wash steps in FACS buffer bound antibody was detected via flow cytometry (IQue Intellicyte).
Humanized variant of the 5T4 sdAbs were tested for their ability to bind 5T4 expressing cells substantially as described in Example 2, and binding was compared to the parental sdAb. 5T4 expressing T47D cells were used in these studies. Results are shown in FIGS. 2A-2F, which confirm binding of the humanized variants. In some cases, binding was increased compared to the parental sdAb.

Row | Binder | binding result | EC50 (read off the curve) [nM]
1 | B1 | binds | 
2 | B2 | binds | 
3 | B3 |  | ~2
4 | B4 |  | ~2
5 | B5 | binds | 
6 | B6 | binds | 
7 | B7 | binds | 
8 | B8 | binds | 
9 | B9 | binds | 
10 | B10 |  | ~2
11 | B11 |  | ~9
12 | B12 |  | ~2
13 | B13 |  | ~2
14 | B14 |  | ~5
15 | B15 | binds | 
16 | B16 | binds | 
17 | B17 |  | ~0.2
18 | B18 |  | ~0.2
19 | B19 | binds | 
20 | B20 | binds | 
21 | B21 |  | ~0.2
